{"source": "paper PMC8280134", "target": "GII.4 P-domain (crystallisation construct) (human norovirus GII.4)", "assay": "crystal structure; P-domain and Fab mixed 1:1.5, complex isolated by gel filtration; crystals in 0.1 M BIS-TRIS propane pH 8.5, 0.2 M KSCN, 20% w/v PEG 3350, 20 °C", "data": [{"substance": "GII.4 P-domain (crystallisation construct) (domain or fragment)", "values": [{"measurement": "stoichiometry N", "result": 2}]}]}
